# The Immune Epitope Database (IEDB)
# Assays:
# Assay in all cases: IEDB peptide-MHC binding, purified MHC/competitive/radioactivity; filed as Kd, often an IC50 or EC50 that approximates it; ≥ and ≤ were set here for values at or beyond the usual limits of such assays
# HLA-A*02:02 = biological target: HLA-A*02:02
# HLA-A*02:06 = biological target: HLA-A*02:06
# HLA-A*02:03 = biological target: HLA-A*02:03
# HLA-A*03:01 = biological target: HLA-A*03:01
# HLA-A*33:01 = biological target: HLA-A*33:01
# HLA-A*68:01 = biological target: HLA-A*68:01
# HLA-A*31:01 = biological target: HLA-A*31:01
# HLA-A*11:01 = biological target: HLA-A*11:01
# [1] = source organism: Vaccinia virus WR
# [2] = source organism: Dengue virus 2 Jamaica/1409/1983
# [3] = source organism: Mammarenavirus guanaritoense
# [4] = source organism: SARS coronavirus Tor2
# [5] = source organism: Lymphocytic choriomeningitis virus (strain Armstrong)
# [6] = source organism: Lassa virus Josiah
# [7] = source organism: Dengue virus 3 Martinique/1243/1999
# [8] = source organism: Mammarenavirus whitewaterense
# [9] = source organism: Mammarenavirus lassaense
Sequence,Kd (HLA-A*02:02; [1]),Kd (HLA-A*02:06; [1]),Kd (HLA-A*02:03; [1]),further results
SAGFTATICL,6.9 µM,2.41 µM,≥ 20.1 µM,–
YLYTEYFLFL,0.000684 µM,0.000841 µM,0.00132 µM,–
VTGSYNLVDT,≥ 70 µM,≥ 69.8 µM,≥ 70.4 µM,–
PLSPDTCLLA,11.2 µM,19.9 µM,9.31 µM,–
PLVAGGLLTV,–,–,–,Kd (HLA-A*02:03; [2]): 0.0351 µM
LILSNKLLYA,0.468 µM,0.0361 µM,0.122 µM,–
LTGTFVTAFI,0.672 µM,0.413 µM,0.596 µM,–
YVIGLLPQS,–,–,–,Kd (HLA-A*02:02; [3]): ≥ 77.7 µM; Kd (HLA-A*02:06; [3]): ≥ 48 µM; Kd (HLA-A*02:03; [3]): ≥ 78.1 µM
AIILASFSA,–,–,–,Kd (HLA-A*02:02; [4]): 0.201 µM; Kd (HLA-A*02:06; [4]): 0.0816 µM; Kd (HLA-A*02:03; [4]): 0.176 µM
AIKSNNHLT,≥ 50.7 µM,≥ 77.1 µM,≥ 28.6 µM,–
CALVSDCAST,6.41 µM,2.6 µM,0.146 µM,–
IAVSVYGAI,1.48 µM,1.1 µM,0.124 µM,–
NTITTFIPI,15.5 µM,7.77 µM,0.988 µM,–
GTMPSLTMAC,–,–,–,Kd (HLA-A*02:02; [5]): ≥ 25.2 µM; Kd (HLA-A*02:06; [5]): 12.1 µM; Kd (HLA-A*02:03; [5]): 16.3 µM
NTGMGMYYPT,≥ 23.4 µM,11.4 µM,≥ 21 µM,–
KVLSIMAFIL,0.00232 µM,0.0191 µM,0.684 µM,–
LIVNSVLLFL,–,–,–,Kd (HLA-A*02:02; [4]): 0.00367 µM; Kd (HLA-A*02:06; [4]): 0.0108 µM; Kd (HLA-A*02:03; [4]): 0.0904 µM
YLMCLSPLM,–,–,–,Kd (HLA-A*02:02; [4]): 0.000137 µM; Kd (HLA-A*02:06; [4]): 0.00112 µM; Kd (HLA-A*02:03; [4]): 0.000297 µM
FLDWIKDIMT,0.424 µM,0.14 µM,0.146 µM,–
FTLLFQLCT,–,–,–,Kd (HLA-A*02:02; [4]): 1.1 µM; Kd (HLA-A*02:06; [4]): 0.14 µM; Kd (HLA-A*02:03; [4]): 0.744 µM
DLAIKQYGDI,17.9 µM,≥ 46.5 µM,≥ 33.3 µM,–
FLVLIMLII,–,–,–,Kd (HLA-A*02:02; [4]): 1.63 µM; Kd (HLA-A*02:06; [4]): 1.35 µM; Kd (HLA-A*02:03; [4]): 9.73 µM
KLMGHFSWWT,–,–,–,Kd (HLA-A*02:02; [4]): 0.0644 µM; Kd (HLA-A*02:06; [4]): 0.0991 µM; Kd (HLA-A*02:03; [4]): 0.213 µM
TVDVRNIVT,13.4 µM,≥ 54 µM,13.1 µM,–
AILLVAVSFV,–,–,–,Kd (HLA-A*02:06; [2]): 0.0609 µM
YVILKDPRIA,6.01 µM,1.9 µM,0.355 µM,–
QLFNHTMFIL,–,–,–,Kd (HLA-A*02:02; source organism: Homo sapiens): 0.000423 µM; Kd (HLA-A*02:03; source organism: Homo sapiens): 0.00818 µM

Sequence,Kd (HLA-A*02:02; [1]),Kd (HLA-A*02:06; [1]),Kd (HLA-A*02:03; [1]),further results
LNQAVNNLV,–,–,–,Kd (HLA-A*02:02; [6]): 0.51 µM; Kd (HLA-A*02:06; [6]): 13.6 µM; Kd (HLA-A*02:03; [6]): 3.35 µM
LTLKGMSYV,–,–,–,Kd (HLA-A*02:06; source organism: Dengue virus 1 Singapore/S275/1990): 0.007 µM
DINESMSQMV,0.312 µM,4.15 µM,0.488 µM,–
FTEEQQQSFM,1.12 µM,0.833 µM,1.75 µM,–
ELTSNCTRT,≥ 77.8 µM,≥ 46.5 µM,≥ 78.1 µM,–
EAFETQSGAL,8.56 µM,15 µM,0.995 µM,–
PLPSLEYGA,11.4 µM,≥ 42.5 µM,18.9 µM,–
RLASNAICSA,–,–,–,Kd (HLA-A*02:03; [7]): 0.135 µM
YCHGILLKDV,–,–,–,Kd (HLA-A*02:02; [8]): ≥ 70 µM; Kd (HLA-A*02:06; [8]): 14.9 µM; Kd (HLA-A*02:03; [8]): 13 µM
LLWDYMCIS,–,–,–,Kd (HLA-A*02:02; [9]): 0.146 µM; Kd (HLA-A*02:06; [9]): 0.408 µM; Kd (HLA-A*02:03; [9]): 0.596 µM
ILAGPMPVTA,–,–,–,Kd (HLA-A*02:03; [7]): 0.125 µM
EILSNTTKTL,0.345 µM,≥ 69.8 µM,0.101 µM,–
ITDQTVNICI,≥ 70 µM,10.4 µM,≥ 70.4 µM,–
AMWLLLLSI,–,–,–,Kd (HLA-A*02:02; [4]): 0.357 µM; Kd (HLA-A*02:06; [4]): 0.268 µM; Kd (HLA-A*02:03; [4]): 0.205 µM
FQRVLIFIL,–,–,–,Kd (HLA-A*02:06; source organism: Dengue virus 2 Peru/IQT2913/1996): 1.58 µM
IVVPVIDRL,0.144 µM,0.0309 µM,0.226 µM,–
TQSGALEVLM,0.836 µM,2.23 µM,15.4 µM,–
HAFLCLFLL,–,–,–,Kd (HLA-A*02:02; [4]): 0.0207 µM; Kd (HLA-A*02:06; [4]): 0.00122 µM; Kd (HLA-A*02:03; [4]): 0.0465 µM
QIFNIISYII,0.288 µM,0.743 µM,0.206 µM,–
SIDHCSSFIV,0.172 µM,0.0303 µM,0.772 µM,–
AAAKTPVIVV,8.04 µM,13.4 µM,1.52 µM,–
AVANCVRNL,0.0663 µM,1.38 µM,0.114 µM,–
ILISLINSLV,0.0229 µM,0.151 µM,0.00308 µM,–
ELENKKVEYV,≥ 21.4 µM,≥ 69.8 µM,3.65 µM,–
TLSPAHLINK,–,–,–,Kd (HLA-A*03:01; [1]): 0.00205 µM; Kd (HLA-A*33:01; [1]): 11.4 µM; Kd (HLA-A*68:01; [1]): 0.12 µM; Kd (HLA-A*31:01; [1]): 0.168 µM; Kd (HLA-A*11:01; [1]): 0.00129 µM
TLDESFLGR,–,–,–,Kd (HLA-A*03:01; [4]): 1.43 µM; Kd (HLA-A*33:01; [4]): 1.12 µM; Kd (HLA-A*68:01; [4]): 0.947 µM; Kd (HLA-A*31:01; [4]): 0.841 µM; Kd (HLA-A*11:01; [4]): 0.669 µM
NAISSRVDRY,–,–,–,Kd (HLA-A*03:01; [1]): ≥ 42.6 µM; Kd (HLA-A*33:01; [1]): ≥ 70 µM; Kd (HLA-A*68:01; [1]): 10.7 µM; Kd (HLA-A*31:01; [1]): 11 µM; Kd (HLA-A*11:01; [1]): 18 µM
